Laboratory results published in patent US20210155689A1 (SHANGHAI PHARMAEXPLORER, published 2021).
Where a chain is given by its changes, count along the chain named.

T1: human LAG-3 on cells (HEK293-hLAG-3 stable cell line) (human, UniProt P18627 23-525)
T1 sequence: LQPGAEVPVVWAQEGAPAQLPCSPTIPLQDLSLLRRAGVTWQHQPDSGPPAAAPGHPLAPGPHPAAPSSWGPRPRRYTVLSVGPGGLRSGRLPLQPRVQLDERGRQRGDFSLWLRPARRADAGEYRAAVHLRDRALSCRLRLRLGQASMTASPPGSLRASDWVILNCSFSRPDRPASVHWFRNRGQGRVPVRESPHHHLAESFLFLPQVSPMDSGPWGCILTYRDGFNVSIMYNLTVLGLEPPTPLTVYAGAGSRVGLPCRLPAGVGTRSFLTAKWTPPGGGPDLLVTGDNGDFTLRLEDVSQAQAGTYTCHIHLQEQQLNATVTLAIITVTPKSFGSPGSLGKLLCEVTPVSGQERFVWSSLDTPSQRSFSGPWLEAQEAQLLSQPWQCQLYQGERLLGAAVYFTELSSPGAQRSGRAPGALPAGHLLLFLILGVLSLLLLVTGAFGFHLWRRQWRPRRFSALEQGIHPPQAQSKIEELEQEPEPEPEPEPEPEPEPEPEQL

B1: 405B8H3 mouse-human chimeric antibody (antibody, V domains shown)
VH: QVQLQQSGAELVRPGASVTLSCKASGYTFTDYEMHWVKQTPVHGLEWIGATDPETGNSAYNQKFKGKAIMTADKSSSTAYMELRSLTSEDSAVYYCISTGWNDWGQGTSLTVSS
VL: DIKMTQSPSSMYASLGERVTITCKASQDINSYLSWFQQKPGKSPKTLIYRADRLLDGVPSRFSGSGSGQDYSLTISSLEYGDMGIYYCLQYDEFPYTFGGGTKLEIK
notes: also called mAb103-405B8H3
B2: 409B11E12 mouse-human chimeric antibody (antibody, V domains shown)
VH: B1 VH with P41T, G56S, N57Y, M70L, S98A
VL: B1 VL with I2L, D52N, G81E
notes: also called mAb104-409B11E12
B3: 409D4E10 mouse-human chimeric antibody (antibody, V domains shown)
VH: B1 VH with Y27N, G56D, S58T, M70L, A72T, S98T, T99S
VL: B1 VL with D52N, G81E, D92N
notes: also called mAb112-409D4E10

Tests used:
[1] = molecular target: T1, human LAG-3 on cells (HEK293-hLAG-3 …); assay: cell-based or functional assay
[2] = molecular target: T1, human LAG-3 on cells (HEK293-hLAG-3 …); assay: FACS, HEK293-hLAG-3, antibody 200.000 nM
Description: (§1) The pIRES plasmid with the monkey-derived full-length gene was transfected into the HEK293 cell line to construct a HEK293 stable cell line containing monkey LAG-3 (herein referred to as HEK293-cLAG-3 stable cell line). The HEK293-hLAG-3 stable cell line and HEK293-cLAG-3 stable cell line were expanded in a T-75 cell culture flask to a 90% confluence. The medium was aspirated, and the cells were washed with HBSS (Hanks' Balanced Salt Solution) 1-2 times, then treated with a enzyme-free cell dissociation fluid (Versene solution: Life technology) and the cells were collected. The cells were washed with HBSS buffer for 1-2 times. After counted, the cells were diluted with HBSS to 1-2×10⁶ cells per ml, added with 1% goat serum blocking solution, incubated on ice for 20-30 minutes, and then washed with HBSS for 2 times by centrifugation. The collected cells were suspended in the FACS buffer (HBSS+1% BSA) to 2×10⁶ cells/ml, added as 100 microliters per well to a 96-well FACS reaction plate, added with 100 microliters per well of the antibody sample to be tested, incubated on ice for 1-2 hours. The plate was washed twice with the FACS buffer by centrifugation, added with 100 microliters of fluorescent (Alexa 488)-labeled secondary antibodies per well, and incubated on ice for 0.5-1.0 hours. The plate was washed 2-3 times with FACS buffer by centrifugation, added with 100 μl fixative solution (4% Paraformaldehyde) per well to suspend the cells. 5-10 minutes later, it was washed 1-2 times with FACS buffer by centrifugation. The cells were suspended with 100 microliters of FACS buffer, FACS (FACSCalibur, BD) was used for detection and the results were analyzed.

[3] = molecular target: T1, human LAG-3 on cells (HEK293-hLAG-3 …); assay: FACS, HEK293-hLAG-3, antibody 0.320 nM
Description: as §1

| Binder | IL-2 production, SEB-dependent PBMC stimulation test, 0.0032 ug/ml, N = 1 [1] [pg/mL] | IL-2 production, SEB-dependent PBMC stimulation test, 0.0032 ug/ml, N = 2 [1] [pg/mL] | IL-2 production, SEB-dependent PBMC stimulation test, 0.016 ug/ml, N = 1 [1] [pg/mL] | IL-2 production, SEB-dependent PBMC stimulation test, 0.016 ug/ml, N = 2 [1] [pg/mL] | IL-2 production, SEB-dependent PBMC stimulation test, 0.08 ug/ml, N = 1 [1] [pg/mL] | IL-2 production, SEB-dependent PBMC stimulation test, 0.08 ug/ml, N = 2 [1] [pg/mL] | IL-2 production, SEB-dependent PBMC stimulation test, 0.4 ug/ml, N = 1 [1] [pg/mL] | IL-2 production, SEB-dependent PBMC stimulation test, 0.4 ug/ml, N = 2 [1] [pg/mL] | IL-2 production, SEB-dependent PBMC stimulation test, 2 ug/ml, N = 1 [1] [pg/mL] | IL-2 production, SEB-dependent PBMC stimulation test, 2 ug/ml, N = 2 [1] [pg/mL] | IL-2 production, SEB-dependent PBMC stimulation test, 10 ug/ml, N = 1 [1] [pg/mL] | IL-2 production, SEB-dependent PBMC stimulation test, 10 ug/ml, N = 2 [1] [pg/mL] | Mean fluorescence intensity [2] | Mean fluorescence intensity [3] |
| --- | --- | --- | --- | --- | --- | --- | --- | --- | --- | --- | --- | --- | --- | --- |
| B1 | 2000 | 1600 | 1880 | 1770 | 1800 | 1840 | 2790 | 3240 | 2700 | 2850 | 3280 | 3160 | 169 | 17.3 |
| B2 | 1340 | 1190 | 1720 | 1230 | 1550 | 1530 | 2820 | 1990 | 2540 | 1920 | 3140 | 3010 | 171 | 16.8 |
| B3 | 1660 | 1240 | 1250 | 1450 | 1630 | 1420 | 2170 | 2160 | 2770 | 1940 | 2740 | 2100 | 151 | 15.7 |
